The source of these data is patent US20140087995A1 (published 2014).

Numbered stars: 1 amine (or outer) side, 2 acyl side, 3 side chain; on linkers, the order of the positions; unused ones are H or OH. Bridge positions count the residues as written; N and C are the ends. Side chains are listed from the residue outwards. Ends that are not written are not given here. * marks the point of attachment. C20 diacid = O=C(O)CCCCCCCCCCCCCCCCCCC(=O)*; γGlu = O=C(O)[C@H](CCC(=O)[*:2])N[*:1]; AEEA = NCCOCCOCC(=O)O

Sequences and labels used below:
T1: human calcitonin receptor (human, UniProt P30988 25-474)
T1 sequence (looked up): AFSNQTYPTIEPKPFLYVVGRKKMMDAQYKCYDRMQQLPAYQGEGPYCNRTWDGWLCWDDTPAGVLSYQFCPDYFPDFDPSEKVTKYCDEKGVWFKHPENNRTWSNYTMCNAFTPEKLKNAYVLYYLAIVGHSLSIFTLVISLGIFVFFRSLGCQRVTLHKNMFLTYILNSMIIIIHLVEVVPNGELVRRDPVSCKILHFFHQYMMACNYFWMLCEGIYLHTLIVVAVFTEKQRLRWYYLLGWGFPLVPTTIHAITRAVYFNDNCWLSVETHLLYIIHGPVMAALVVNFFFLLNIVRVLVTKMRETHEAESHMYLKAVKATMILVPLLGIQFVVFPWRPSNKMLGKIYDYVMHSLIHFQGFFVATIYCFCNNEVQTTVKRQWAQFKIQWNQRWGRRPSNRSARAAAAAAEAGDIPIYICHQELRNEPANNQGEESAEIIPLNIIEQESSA

T2: human amylin receptor (amylin 3(a) receptor: human calcitonin receptor plus RAMP-3) (human, UniProt P30988 25-474; O60896 24-148, limits assumed)
T2 sequence (looked up) 1: T1 sequence (looked up)
T2 sequence (looked up) 2: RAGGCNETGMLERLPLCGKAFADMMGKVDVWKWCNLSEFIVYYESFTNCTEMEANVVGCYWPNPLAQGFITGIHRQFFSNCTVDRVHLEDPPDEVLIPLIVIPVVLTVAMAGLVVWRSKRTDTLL

B1: N^α1-[(4S)-4-carboxy-4-(19-carboxynonadecanoylamino)butanoyl]-[His14,Arg17,Pro21,Pro27,Glu35]-h-amylin (peptide)
peptide: {C20 diacid-γGlu}-KCNTATCATQRLAHFLRHSSPNFGAIPSSTNVGSETY-NH2
modifications: disulfide 2-7
SMILES: CC[C@H](C)[C@H](NC(=O)[C@H](C)NC(=O)CNC(=O)[C@H](Cc1ccccc1)NC(=O)[C@H](CC(N)=O)NC(=O)[C@@H]1CCCN1C(=O)[C@H](CO)NC(=O)[C@H](CO)NC(=O)[C@H](Cc1c[nH]cn1)NC(=O)[C@H](CCCNC(=N)N)NC(=O)[C@H](CC(C)C)NC(=O)[C@H](Cc1ccccc1)NC(=O)[C@H](Cc1c[nH]cn1)NC(=O)[C@H](C)NC(=O)[C@H](CC(C)C)NC(=O)[C@H](CCCNC(=N)N)NC(=O)[C@H](CCC(N)=O)NC(=O)[C@@H](NC(=O)[C@H](C)NC(=O)[C@@H]1CSSC[C@H](NC(=O)[C@H](CCCCN)NC(=O)CC[C@H](NC(=O)CCCCCCCCCCCCCCCCCCC(=O)O)C(=O)O)C(=O)N[C@@H](CC(N)=O)C(=O)N[C@@H]([C@@H](C)O)C(=O)N[C@@H](C)C(=O)N[C@@H]([C@@H](C)O)C(=O)N1)[C@@H](C)O)C(=O)N1CCC[C@H]1C(=O)N[C@@H](CO)C(=O)N[C@@H](CO)C(=O)N[C@H](C(=O)N[C@@H](CC(N)=O)C(=O)N[C@H](C(=O)NCC(=O)N[C@@H](CO)C(=O)N[C@@H](CCC(=O)O)C(=O)N[C@H](C(=O)N[C@@H](Cc1ccc(O)cc1)C(N)=O)[C@@H](C)O)C(C)C)[C@@H](C)O
notes: Synthetic acylated analogue of human amylin; also called compound 30
B2: N^ε1-[2-[2-[2-[[(4S)-4-carboxy-4-(19-carboxynonadecanoylamino)butanoyl]amino]ethoxy]ethoxy]acetyl]-[Arg17,Pro21,Pro27,Pro31]-h-amylin (peptide)
peptide: K([AEEA-γGlu-C20 diacid])CNTATCATQRLANFLRHSSPNFGAIPSSTPVGSNTY-NH2
modifications: disulfide 2-7; N-terminus assumed
SMILES: CC[C@H](C)[C@H](NC(=O)[C@H](C)NC(=O)CNC(=O)[C@H](Cc1ccccc1)NC(=O)[C@H](CC(N)=O)NC(=O)[C@@H]1CCCN1C(=O)[C@H](CO)NC(=O)[C@H](CO)NC(=O)[C@H](Cc1c[nH]cn1)NC(=O)[C@H](CCCNC(=N)N)NC(=O)[C@H](CC(C)C)NC(=O)[C@H](Cc1ccccc1)NC(=O)[C@H](CC(N)=O)NC(=O)[C@H](C)NC(=O)[C@H](CC(C)C)NC(=O)[C@H](CCCNC(=N)N)NC(=O)[C@H](CCC(N)=O)NC(=O)[C@@H](NC(=O)[C@H](C)NC(=O)[C@@H]1CSSC[C@H](NC(=O)[C@@H](N)CCCCNC(=O)COCCOCCNC(=O)CC[C@H](NC(=O)CCCCCCCCCCCCCCCCCCC(=O)O)C(=O)O)C(=O)N[C@@H](CC(N)=O)C(=O)N[C@@H]([C@@H](C)O)C(=O)N[C@@H](C)C(=O)N[C@@H]([C@@H](C)O)C(=O)N1)[C@@H](C)O)C(=O)N1CCC[C@H]1C(=O)N[C@@H](CO)C(=O)N[C@@H](CO)C(=O)N[C@H](C(=O)N1CCC[C@H]1C(=O)N[C@H](C(=O)NCC(=O)N[C@@H](CO)C(=O)N[C@@H](CC(N)=O)C(=O)N[C@H](C(=O)N[C@@H](Cc1ccc(O)cc1)C(N)=O)[C@@H](C)O)C(C)C)[C@@H](C)O
notes: Synthetic acylated analogue of human amylin; also called compound 49
B3: N^ε1-[2-[2-[2-[[(4S)-4-carboxy-4-(19-carboxynonadecanoylamino)butanoyl]amino]ethoxy]ethoxy]acetyl]-[Arg17,Pro21,Pro27,Pro29,Pro31]-h-amylin (peptide)
peptide: K([AEEA-γGlu-C20 diacid])CNTATCATQRLANFLRHSSPNFGAIPSPTPVGSNTY-NH2
modifications: disulfide 2-7; N-terminus assumed
SMILES: CC[C@H](C)[C@H](NC(=O)[C@H](C)NC(=O)CNC(=O)[C@H](Cc1ccccc1)NC(=O)[C@H](CC(N)=O)NC(=O)[C@@H]1CCCN1C(=O)[C@H](CO)NC(=O)[C@H](CO)NC(=O)[C@H](Cc1c[nH]cn1)NC(=O)[C@H](CCCNC(=N)N)NC(=O)[C@H](CC(C)C)NC(=O)[C@H](Cc1ccccc1)NC(=O)[C@H](CC(N)=O)NC(=O)[C@H](C)NC(=O)[C@H](CC(C)C)NC(=O)[C@H](CCCNC(=N)N)NC(=O)[C@H](CCC(N)=O)NC(=O)[C@@H](NC(=O)[C@H](C)NC(=O)[C@@H]1CSSC[C@H](NC(=O)[C@@H](N)CCCCNC(=O)COCCOCCNC(=O)CC[C@H](NC(=O)CCCCCCCCCCCCCCCCCCC(=O)O)C(=O)O)C(=O)N[C@@H](CC(N)=O)C(=O)N[C@@H]([C@@H](C)O)C(=O)N[C@@H](C)C(=O)N[C@@H]([C@@H](C)O)C(=O)N1)[C@@H](C)O)C(=O)N1CCC[C@H]1C(=O)N[C@@H](CO)C(=O)N1CCC[C@H]1C(=O)N[C@H](C(=O)N1CCC[C@H]1C(=O)N[C@H](C(=O)NCC(=O)N[C@@H](CO)C(=O)N[C@@H](CC(N)=O)C(=O)N[C@H](C(=O)N[C@@H](Cc1ccc(O)cc1)C(N)=O)[C@@H](C)O)C(C)C)[C@@H](C)O
notes: Synthetic acylated analogue of human amylin; also called compound 54
B4: N^ε1-[2-[2-[2-[[(4S)-4-carboxy-4-(19-carboxynonadecanoylamino)butanoyl]amino]ethoxy]ethoxy]acetyl]-[Arg17,Pro21,Pro27,Pro28,Pro31]-h-amylin (peptide)
peptide: K([AEEA-γGlu-C20 diacid])CNTATCATQRLANFLRHSSPNFGAIPPSTPVGSNTY-NH2
modifications: disulfide 2-7
notes: Synthetic acylated analogue of human amylin; also called compound 53
B5: N^ε1-[2-[2-[2-[[2-[2-[2-[[(4S)-4-carboxy-4-(19-carboxynonadecanoylamino)butanoyl]amino]ethoxy]ethoxy]acetyl]amino]ethoxy]ethoxy]acetyl]-[Arg17,Pro21,Pro27,Glu35 … (peptide)
peptide: K([AEEA-AEEA-γGlu-C20 diacid])CNTATCATQRLANFLRHSSPNFGAIPSSTNVGSETY-NH2
modifications: disulfide 2-7; N-terminus assumed
SMILES: CC[C@H](C)[C@H](NC(=O)[C@H](C)NC(=O)CNC(=O)[C@H](Cc1ccccc1)NC(=O)[C@H](CC(N)=O)NC(=O)[C@@H]1CCCN1C(=O)[C@H](CO)NC(=O)[C@H](CO)NC(=O)[C@H](Cc1c[nH]cn1)NC(=O)[C@H](CCCNC(=N)N)NC(=O)[C@H](CC(C)C)NC(=O)[C@H](Cc1ccccc1)NC(=O)[C@H](CC(N)=O)NC(=O)[C@H](C)NC(=O)[C@H](CC(C)C)NC(=O)[C@H](CCCNC(=N)N)NC(=O)[C@H](CCC(N)=O)NC(=O)[C@@H](NC(=O)[C@H](C)NC(=O)[C@@H]1CSSC[C@H](NC(=O)[C@@H](N)CCCCNC(=O)COCCOCCNC(=O)COCCOCCNC(=O)CC[C@H](NC(=O)CCCCCCCCCCCCCCCCCCC(=O)O)C(=O)O)C(=O)N[C@@H](CC(N)=O)C(=O)N[C@@H]([C@@H](C)O)C(=O)N[C@@H](C)C(=O)N[C@@H]([C@@H](C)O)C(=O)N1)[C@@H](C)O)C(=O)N1CCC[C@H]1C(=O)N[C@@H](CO)C(=O)N[C@@H](CO)C(=O)N[C@H](C(=O)N[C@@H](CC(N)=O)C(=O)N[C@H](C(=O)NCC(=O)N[C@@H](CO)C(=O)N[C@@H](CCC(=O)O)C(=O)N[C@H](C(=O)N[C@@H](Cc1ccc(O)cc1)C(N)=O)[C@@H](C)O)C(C)C)[C@@H](C)O
notes: Synthetic acylated analogue of human amylin; also called compound 25
B6: N^ε1-[2-[2-[2-[[(4S)-4-carboxy-4-(19-carboxynonadecanoylamino)butanoyl]amino]ethoxy]ethoxy]acetyl]-[Arg17,Pro21,Pro27,Glu35]-h-amylin (peptide)
peptide: K([AEEA-γGlu-C20 diacid])CNTATCATQRLANFLRHSSPNFGAIPSSTNVGSETY-NH2
modifications: disulfide 2-7; N-terminus assumed
SMILES: CC[C@H](C)[C@H](NC(=O)[C@H](C)NC(=O)CNC(=O)[C@H](Cc1ccccc1)NC(=O)[C@H](CC(N)=O)NC(=O)[C@@H]1CCCN1C(=O)[C@H](CO)NC(=O)[C@H](CO)NC(=O)[C@H](Cc1c[nH]cn1)NC(=O)[C@H](CCCNC(=N)N)NC(=O)[C@H](CC(C)C)NC(=O)[C@H](Cc1ccccc1)NC(=O)[C@H](CC(N)=O)NC(=O)[C@H](C)NC(=O)[C@H](CC(C)C)NC(=O)[C@H](CCCNC(=N)N)NC(=O)[C@H](CCC(N)=O)NC(=O)[C@@H](NC(=O)[C@H](C)NC(=O)[C@@H]1CSSC[C@H](NC(=O)[C@@H](N)CCCCNC(=O)COCCOCCNC(=O)CC[C@H](NC(=O)CCCCCCCCCCCCCCCCCCC(=O)O)C(=O)O)C(=O)N[C@@H](CC(N)=O)C(=O)N[C@@H]([C@@H](C)O)C(=O)N[C@@H](C)C(=O)N[C@@H]([C@@H](C)O)C(=O)N1)[C@@H](C)O)C(=O)N1CCC[C@H]1C(=O)N[C@@H](CO)C(=O)N[C@@H](CO)C(=O)N[C@H](C(=O)N[C@@H](CC(N)=O)C(=O)N[C@H](C(=O)NCC(=O)N[C@@H](CO)C(=O)N[C@@H](CCC(=O)O)C(=O)N[C@H](C(=O)N[C@@H](Cc1ccc(O)cc1)C(N)=O)[C@@H](C)O)C(C)C)[C@@H](C)O
notes: Synthetic acylated analogue of human amylin; also called compound 26

One test has as its target T1, human calcitonin receptor. In words: cell-based or functional assay.
As for B1, the “hCTR funct. EC50” value worked out at 1.68 nM.

With B2, the “hCTR funct. EC50” value turned out to be 2.39 nM.

Take B3: the “hCTR funct. EC50” value was found to be 0.987 nM.

Turning to B4, the “hCTR funct. EC50” value is 0.625 nM.

As for B5, the “hCTR funct. EC50” value is 10 nM.

As to B6, the “hCTR funct. EC50” value was found to be 6.34 nM.

A further test addresses T2, human amylin receptor (amylin 3(a) …). In words: cell-based or functional assay.
Regarding B1, the “Ratio hCT/hAmylin funct.” value turned out to be 12.6 ratio and the “hAmylin-R funct. EC50” value worked out at 0.134 nM.

B2: the “Ratio hCT/hAmylin funct.” value was determined as 22.5 ratio and the “hAmylin-R funct. EC50” value is 0.106 nM.

Consider B3, for which the “Ratio hCT/hAmylin funct.” value was 9.6 ratio and the “hAmylin-R funct. EC50” value stood at 0.103 nM.

Turning to B4, the “Ratio hCT/hAmylin funct.” value is 9.8 ratio and the “hAmylin-R funct. EC50” value was found to be 0.064 nM.

Regarding B5, the “Ratio hCT/hAmylin funct.” value came out at 46.2 ratio and the “hAmylin-R funct. EC50” value worked out at 0.217 nM.

Regarding B6, the “Ratio hCT/hAmylin funct.” value came out at 29.9 ratio and the “hAmylin-R funct. EC50” value was found to be 0.212 nM.
